Experimental data published in article PMC3861479, “LipL41, a Hemin Binding Protein from Leptospira santarosai serovar Shermani” (PLoS ONE, 2013).
Numbering of substitutions follows the chain as printed. Names may count otherwise.

Legend:
[1] = target: the molecule itself; experiment: negative-stain transmission electron microscopy; 0.1 mg/ml LipL41 on a glow-discharged copper grid, 2% uranyl acetate; class averages with EMAN2
[2] = target: the molecule itself; experiment: SEC + AUC; LipL41-C100 in solution; data not shown

B1: LipL41 C140A/C220A (natural protein)
chain: AATVDVEYPVFPKDKEGRALQKFLGTIRNVGLAVEPPKKSLWEAIFGEGSSFIDQMPSKVFEAFDKESYYKLTDLSKRADILNEATLSLTGITKSRAKIGNLIGAEAILYIGYQKPYTEASTENKIDAVAAGIKVAGFVASAATGKDVNTGNDPVSKPTGVRMMLIPLDATLIKVETGEVKKAVVSSPAKIFNSVGNLEAPSILDSFGQGLDEAAAYIKGRLSPIVKTERIKVFVKDEDEEVKELLQEGYEEIVGETPSFKKAKEAWEKADKKAKGQSWGAKANLATYYFSIGDFEKSIKLYEEAMKLKDADKSYLRELRKRVEATFAVDESNAK
notes: also called cysteine double mutant; HRM-mutated LipL41; source: E. coli, expression and purification similar to that of the wildtype
B1: binds [1].

B2: LipL41 C140A (natural protein)
chain: B1 chain with A200C
notes: also called HRM-mutated LipL41; source: E. coli, expression and purification similar to that of the wildtype
B2: binds [1].

B3: LipL41 C220A (natural protein)
chain: B1 chain with A120C
notes: as for B2
B3: binds [1].

B4: recombinant LipL41 (Ala21 - Lys355) with an N-terminal His6-tag (natural protein)
chain: B1 chain with A120C, A200C
notes: also called LipL41 wildtype; pRSET-LipL41; source: E. coli BL21(DE3), purified (Ni-NTA); copies: 36
With B4 the “stoichiometry N” value [1] was 36.

B5: LipL41-C100 with a TPR-containing fragment of residues 256-355 (domain or fragment)
chain: KDEDEEVKELLQEGYEEIVGETPSFKKAKEAWEKADKKAKGQSWGAKANLATYYFSIGDFEKSIKLYEEAMKLKDADKSYLRELRKRVEATFAVDESNAK
notes: source: E. coli, expression and purification similar to that of the wildtype
With B5 the “stoichiometry N” value [2] was 2.
